Source: patent publication US5688912A, “Peptide ligands which bind to von willebrand factor” (Bayer Corporation, priority 1995, dated 1997)
No end group written: not given here.

How the values were obtained:
Format in all cases: binding
[1] = target: T1, von Willebrand Factor (vWF) (Homo sapiens, UniProt P04275); assay: Peptide-Toyopearl affinity column chromatography of Koate; vWF in fractions by ELISA, protein by A280; parameters: Koate® containing vWF, FVIII, and albumin was a product of Bayer Corp; tissue Bayer Corp. (Clayton, N.C.) Koate; host or cells: plasma-derived concentrate (Koate); settings: for % vWF by ELISA, flow through / % area of acid peak / % vWF by ELISA, acid / % vWF by ELISA, salt: Table 2; for % vWF by ELISA, flow through / % area of acid peak: 1 ml column; for % area of acid peak: 2% acetic acid peak; for % vWF by ELISA, salt: NaCl gradient eluate
Procedure: The gel slurry (1 ml wet gel mixed with 2 ml degassed PBS and 1 M sodium chloride buffer) was transferred into a packing device (from PerSeptive Biosystems, Framingham, Mass.) and packed into a PEEK column (0.75 cm×5 cm from Alltech, Deerfield, Ill.) at a flow rate of 8 ml/min. […] The column was washed with at least 4 bed volumes of binding buffer (10 mM HEPES, 100 mM NaCl, 5 mM calcium chloride at pH 7) and elution buffer (2% acetic acid), then equilibrated with binding buffer.
Protein concentrations were monitored by A280 absorbance. Samples were characterized using vWF ELISA. Briefly, anti-vWF antibody (from Accurate Inc. N.Y.) was coated on each well of a microliter plate (96 wells from Corning, N.Y. 14831) overnight using 100 μl solution of antibody diluted 200 times in 0.1M sodium bicarbonate buffer at pH 9.6. Each well was then blocked with 300 μl solution of 1% BSA in PBS for 1 hour at room temperature. The plate was washed 5 times with PBS. Pure vWF and the collected samples were diluted to a concentration range between 0.02 to 0.2 μg/ml using 1 mg/ml BSA in PBS. Each sample (100 μl) was incubated with the anti-vWF coated well for 1 hour at room temperature and the plate was washed 5 times with PBS plus 0.1% Tween 20. A second anti-vWF antibody with horse radish peroxidase (HRP) conjugate (from DAKO, Glostrup, Denmark) at a concentration of 1 to 500 dilution was introduced to each well and incubated for i hour at room temperature. The plate was washed again with PBS plus 0.1% Tween 20 for 5 times. Substrate ABTS (2,2'-azino-bis(3-ethylbenz-thiazoline-6-sulfonic acid)) and H2 O2 were used for the kinetic reading at 410 nm using Bio Kinetics Reader from BioTek (Winooski, Vt.).
Peptide RLRSFY was directly synthesized (25) onto a modified Toyopearl resin (--(β-Ala)2 -Toyopearl) and the resin was packed in a 1 ml column (0.7×2.5 cm). Koate (Bayer's product containing vWF, FVIII and human albumin) was applied to the column at a flow rate of 2 ml/min in binding buffer (10 mM HEPES, 5 mM calcium chloride and 0.1M NaCl, pH 7). After 1 min of washing in binding buffer, a linear gradient from 0.1 to 1M NaCl in HEPES buffer was applied to the column over 5 min. The elution with high salt concentration was maintained for another 1 min, before 2% acetic acid was used to elute the retained protein. […] The remainder was eluted using 2% acetic acid. In a control experiment in which no peptide was attached to the resin (only --(β-Ala)2 -Toyopearl), almost all protein from 0.1 ml Koate flowed through the column under the same conditions used for the peptide-Toyopearl column.
Single conservative amino acid substitutions at the first three positions of RLRSFY were synthesized directly on (β-Ala)2 -Toyopearl. Amino acid substitutions used for both positions of arginine (R) were histidine (H), lysine (K), glutamine (Q), and asparagine (N). Substitutions for leucine (L) include isoleucine (I), valine (V), phenylalanine (F), and tyrosine (Y). These individual substitutions created 12 unique peptide sequences. (SEQ ID NOS: 1 to 12 ) After the resins were packed into 1 ml glass columns, 0.1 ml Koate was applied to each column and eluted with sodium chloride gradient and 2% acetic acid, same as in FIG. 1. Fractions were collected and analyzed for A280 absorbance and ELISA. […] The substitution of the R at the third position from the N-terminus had no effect on the capture of vWF from Koate. […] Maximum vWF binding occurred when L was substituted for V.

[2] = target: T1, von Willebrand Factor (vWF); assay: as above; parameters: Koate® containing vWF, FVIII, and albumin was a product of Bayer Corp; tissue Bayer Corp. (Clayton, N.C.) Koate; host or cells: plasma-derived concentrate (Koate); settings: for percentage of vWF eluted: 0.5M calcium chloride
[3] = target: T1, von Willebrand Factor (vWF); assay: Batch adsorption isotherm of vWF onto peptide-Toyopearl, Langmuir fit; parameters: Koate® containing vWF, FVIII, and albumin was a product of Bayer Corp; tissue Bayer Corp. (Clayton, N.C.) Koate; host or cells: plasma-derived concentrate (Koate)
Procedure: Adsorption isotherms were measured in a batch mode. In a siliconized microcentrifuge tube, 0.1 ml wet gel was mixed with vWF solution of 10 mM HEPES, 5 mM calcium chloride and 0.5M sodium chloride at pH 7 in a total volume of 0.3 ml. The microcentrifuge tube was incubated at 25° C. for 20 minutes, then the gel was separated from the solution by microcentrifugation. The concentrations of vWF in solutions were measured both by absorbance at 280 nm with an extinction coefficient of 1.2 for 1 mg/ml vWF and by ELISA.
Interactions between RVRSFY directly synthesized on Toyopearl and vWF were studied through adsorption isotherm measurements. Because vWF consists of a wide range of molecular weights, complex theoretical analyses are required to obtain binding constants from the adsorption isotherms. In addition, different multimers of vWF may have different binding constants. To simplify the analyses, vWF with molecular weight around 1000 kDa was fractionated from Koate using size exclusion chromatography with Bio-Gel A-5M gel (BioRad) and analyzed by nonreducing agarose gel electrophoresis.
An increase of peptide density increases adsorption of vWF. A minimum peptide density, 32 mg peptide Ac-RVRSFYK/ml resin ([…]), is required for the binding of vWF to the peptide. The Langmuir equation was used to fit these isotherms, and the association constants and maximum capacities obtained from curve fits are listed in Table 3. They show an increase of association constant and maximum binding capacity with an increase of peptide density mobilized on the Toyopearl resin.

[4] = target: T1, von Willebrand Factor (vWF); assay: Purification of vWF from cryoprecipitate PEG filtrate of human plasma on peptide-Toyopearl column
Procedure: The starting material called PEG filtrate was processed from human plasma cryoprecipitate at Bayer Corp. (Clayton, N.C.). This material contained vWF, FVIII, significant fibrinogen, fibronectin, and IgM. The PEG filtrate was treated with 1% TNBP (tri-n-butylphosphate) and 0.5 % Tween 20 (from Aldrich) at 30° C. for 3 hours. After the treatment, the mixture was directly injected onto peptide affinity columns.
Confirmation of the purification of vWF on RVRSFY-Toyopearl was performed using PEG filtrate as the starting material (FIG. 2). Inclusion of a 0.15M NaCl wash and an additional 0.35M NaCl wash removed the bulk of the albumin. Bound vWF was eluted with 2% acetic acid.
The PEG filtrate was treated with virus inactivation reagents, 1% TNBP and 0.5% Tween 20 at 30° C. for 3 hours. The treated PEG fitrate was injected directly into the column. […] Approximately 74% of the total vWF was eluted with 0.35M CaCl2 (small peak at 10 min).

| Substance | % vWF by ELISA, flow through ([1]; 0.1 ml Koate) [%] | % area of acid peak ([1]; 0.1 ml Koate) [%] | % vWF by ELISA, acid ([1]; 2% acetic acid eluate) [%] | % vWF by ELISA, salt [1] [%] | also measured |
| --- | --- | --- | --- | --- | --- |
| RIRSFY (not fully specified (C-terminus)) | 1.92 | 28.0 | 44.78 | 4.09 |  |
| HLRSFY (not fully specified (C-terminus)) | 0.75 | 26.7 | 32.7 | 0.28 |  |
| RLRSFY (not fully specified (C-terminus)) [RLRSFY-Toyopearl, phage-library-derived peptide directly synthesized onto modified Toyopearl resin (--(β-Ala)2-Toyopearl)] |  |  |  |  | protein that did not bind to the peptide resin or was loosely bound and eluted by sodium chloride ([1]; 0.1 ml Koate): about 60%; A280, flow through ([1]; 0.1 ml Koate (input A280 7.8), flow through fraction ×4 ml): 0.071; A280, acid ([1]; 0.1 ml Koate, 2% acetic acid fraction ×4 ml): 0.070; A280, salt ([1]; 0.1 ml Koate, NaCl gradient 0.1 to 1M fraction ×12 ml): 0.014; vWF recovered in the acid peak ([1]; Koate, 2% acetic acid): Approximately one-half; retention of vWF by column ([1]; Koate, could not be eluted by sodium chloride up to 1M): Most of the vWF was retained; % vWF activity by ELISA, acid ([1]; Table 1, 0.1 ml Koate, 2% acetic acid eluate): 49.78%; % vWF activity by ELISA, salt ([1]; Table 1, 0.1 ml Koate, NaCl eluate): 0.09%; % vWF activity by ELISA, flow through ([1]; Table 1, 0.1 ml Koate, flow through): 1.6%; % recovery (A280 mass balance) ([1]; total protein recovered from column): 95% |
| QLRSFY (not fully specified (C-terminus)) | 29.45 | 9.2 | 2.20 | 11.69 |  |
| NLRSFY (not fully specified (C-terminus)) | 19.96 | 14.8 | 6.98 | 11.88 |  |
| RYRSFY (not fully specified (C-terminus)) | 1.65 | 27.1 | 51.72 | 0.14 |  |
| Ac-RVRSFYK-amide (Ac-RVRSFYK-NH2) [Ac-RVRSFYK-Toyopearl, peptide immobilized to Toyopearl-Epoxy-650M resin through the C-terminal lysine] |  |  |  |  | vWF recovered in all fractions (ELISA) ([1]; 0.1 ml Koate, 0.4 ml column, 54 mg/ml peptide): 87.8%; percentage of vWF eluted ([1]; 0.5M calcium chloride, 30° C.): 89%; vWF captured by the peptide column ([1]; Koate, between pH 6 and 7): about 95%; vWF captured by the peptide column ([1]; Koate, solution pH 5): 91%; captured vWF eluted ([1]; calcium and magnesium concentrations higher than 0.3M): about 80%; release of captured vWF by salt elution ([1]; elution with 2M NaCl, Koate): not released; total vWF in the CaCl2 fraction (ELISA) ([2]; 0.1 ml Koate, 0.4 ml column, 54 mg/ml peptide, 0.5M CaCl2): 82.5%; percentage of vWF eluted ([2]; 22° C.): 80%; percentage of vWF eluted ([2]; 26° C.): 85%; vWF captured by the peptide column ([2]; Koate, solution pH 4.6): 65%; Association constant ([3]; peptide density 32 mg/ml): 882000 M⁻¹; Maximum capacity ([3]; peptide density 32 mg/ml): 2.32 mg/mL; Association constant ([3]; peptide density 45 mg/ml): 1.12e+06 M⁻¹; Maximum capacity ([3]; peptide density 45 mg/ml): 7.3 mg/mL; Association constant ([3]; peptide density 54 mg/ml): 1.68e+06 M⁻¹; Maximum capacity ([3]; peptide density 54 mg/ml): 9.7 mg/mL; Association constant ([3]; peptide density 60 mg/ml): 2.06e+06 M⁻¹; Maximum capacity ([3]; peptide density 60 mg/ml): 10.33 mg/mL; total vWF eluted ([4]; PEG filtrate treated with TNBP/Tween 20, 54 mg/ml peptide, eluted with 0.35M CaCl2): Approximately 74% |
| RFRSFY (not fully specified (C-terminus)) | 0.20 | 27.8 | 47.96 | 0.07 |  |
| RLHSFY (not fully specified (C-terminus)) | 1.77 | 24.9 | 50.72 | 2.89 |  |
| RLNSFY (not fully specified (C-terminus)) | 0.26 | 24.5 | 47.68 | 1.50 |  |
| RVRSFY (not fully specified (C-terminus)) | 0.09 | 30.2 | 55.78 | 0.08 | Association constant ([3]; vWF around 1000 kDa, peptide directly synthesized on Toyopearl, Langmuir fit): 1.31e+06 M⁻¹; purification of vWF (SDS-PAGE) ([4]; PEG filtrate, 0.15M and 0.35M NaCl washes, 2% acetic acid elution): highly purified |
| RLKSFY (not fully specified (C-terminus)) | 0.60 | 25.1 | 45.58 | 3.59 |  |
| RLQSFY (not fully specified (C-terminus)) | 0.46 | 20.1 | 50.68 | 0.54 |  |
| KLRSFY (not fully specified (C-terminus)) | 1.03 | 27.1 | 26.94 | 9.83 |  |
